Target: human non-mutant tau (transgene of Alz17 mice), P10636
Sequence (P10636 whole entry, looked up, change not shown): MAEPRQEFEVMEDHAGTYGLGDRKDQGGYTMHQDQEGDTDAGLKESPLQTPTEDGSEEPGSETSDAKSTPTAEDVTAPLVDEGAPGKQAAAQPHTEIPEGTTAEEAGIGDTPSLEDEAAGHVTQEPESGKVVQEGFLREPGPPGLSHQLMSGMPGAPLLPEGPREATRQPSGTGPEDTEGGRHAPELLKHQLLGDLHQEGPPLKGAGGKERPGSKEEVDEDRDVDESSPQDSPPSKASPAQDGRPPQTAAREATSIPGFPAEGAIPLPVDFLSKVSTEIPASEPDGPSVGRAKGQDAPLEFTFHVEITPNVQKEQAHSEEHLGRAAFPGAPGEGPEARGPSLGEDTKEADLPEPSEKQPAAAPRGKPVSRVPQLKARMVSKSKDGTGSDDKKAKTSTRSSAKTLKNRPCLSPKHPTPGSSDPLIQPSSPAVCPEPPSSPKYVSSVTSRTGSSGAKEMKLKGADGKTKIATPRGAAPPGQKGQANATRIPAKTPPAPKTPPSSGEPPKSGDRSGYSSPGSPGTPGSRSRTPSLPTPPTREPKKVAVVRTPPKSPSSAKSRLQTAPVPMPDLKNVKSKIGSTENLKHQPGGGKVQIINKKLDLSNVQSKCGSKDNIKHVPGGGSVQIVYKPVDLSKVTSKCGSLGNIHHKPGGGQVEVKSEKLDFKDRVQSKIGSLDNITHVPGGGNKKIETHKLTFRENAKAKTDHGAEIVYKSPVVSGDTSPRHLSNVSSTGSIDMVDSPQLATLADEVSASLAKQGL

B1: constitutively active p38γ (p38γ^CA; p38γ Asp179Ala), HA-tagged (protein)
chain: MSSPPPARSGFYRQEVTKTAWEVRAVYRDLQPVGSGAYGAVCSAVDGRTGAKVAIKKLYRPFQSELFAKRAYRELRLLKHMRHENVIGLLDVFTPDETLDDFMDFYLVMPFMGTDLGKLMKHEKLGEDRIQFLVYQMLKGLRDLKPGNLAVNEDCELKILDFGLARQAASEMTGYVVTRWYRAPEVILNWMRYTQTVDIWSVGCIMAEMITGKTLFKGSDHLDQLKEIMKVTGTPPAEFVQRLQSDEAKNYMKGLPELEKKDFASILTNASPLAVNLLEKMLVLDAEQRVTAGEALAHPYFESLHDTEDEPQVQKYDDSFDDVDRTLDEWKRVTYKEVLSFKPPRQLGARVSKETPL
- Immunofluorescence staining of brains with antibodies to tau and tau phosphorylated at T205: increased T205 tau phosphorylation in Alz17.p38γ^CA mice compared with Alz17 mice
- Western blotting of synaptosome preparations from mouse brains for pT205 tau: increased phosphorylation of tau at T205 in the post-synapse of Alz17.p38γ^CA mice as compared with Alz17.p38γ^+/+ controls

B2: endogenous mouse p38γ (protein)
chain: MSSPPPARKGFYRQEVTKTAWEVRAVYQDLQPVGSGAYGAVCSAVDSRTGNKVAIKKLYRPFQSELFAKRAYRELRLLKHMRHENVIGLLDVFTPDESLDDFTDFYLVMPFMGTDLGKLMKHETLSEDRIQFLVYQMLKGLKYIHAAGVIHRDLKPGNLAVNEDCELKILDFGLARQADSEMTGYVVTRWYRAPEVILNWMRYTQTVDIWSVGCIMAEMITGKILFKGNDHLDQLKEIMKITGTPPPEFVQKLQSAEAKNYMEGLPELEKKDFASVLTNASPQAVNLLERMLVLDAEQRVTAAEALTHPYFESLRDTEDEPKAQKYDDSFDDVDRTLEEWKRVTYKEVLSFKPPRQLGARVPKETAL
- Western blotting of synaptosome preparations from mouse brains for pT205 tau: phosphorylation of tau at T205 was no longer detectable in Alz17.p38γ^-/- mice that also lacked p38γ in their post-synapses
